Two molecules from PMC12203944 can be followed below.

Test [1] addresses c-Myc^1-88 labelled with A488 on C70, phosphorylated on T58 and S62 (UniProt P01106). Put plainly: fluorescence polarisation; steady-state fluorescence anisotropy of the A488 dye on c-Myc in the donor-only samples with unlabeled AurA, same plates as for the lifetime measurements; excitation 470 nm, emission 516 nm; fit to a 1:1 binding model. A general note: Fluorescence polarisation rises when a labelled molecule tumbles more slowly, as on binding a larger partner.

Test [2] addresses c-Myc^1-331 labelled at the four N-terminal sites in the MB0–MBII region (fluorescence anisotropy). Described as above.
The target of test [3] is c-Myc^1-331 labelled at the four N-terminal sites in the MB0–MBII region (FRET). Put plainly: FRET or BRET; time-resolved fluorescence lifetime plate reader; Alexa 488-labelled c-Myc constant at 50 nM, DABCYL-labelled AurA titrated 0-12.8 uM; 384-well plates, room temperature, at least 30 min.
Test [4] deals with c-Myc^1-331 single-cysteine construct C70, labelled with Alexa 488, phosphorylated on T58 and S62. Described as above.

In general, Kd refers to the concentration at which binding is half-saturated. As to “Aurora A kinase domain (AurA^122-403), unlabeled (from UniProt O14965 122-403) (domain or fragment)”, in test [1], the fold enhancement of binding affinity over unphosphorylated c-Myc 1-88 stood at 3 fold. The same molecule gave an equilibrium dissociation constant (Kd) in test [2] of 2000 to 3000 nM.

B1: Aurora A kinase domain (AurA^122-403), cysteine-lite, labelled with dabcyl acceptor (domain or fragment)
chain: ESKKRQWALEDFEIGRPLGKGKFGNVYLAREKQSKFILALKVLFKAQLEKAGVEHQLRREVEIQSHLRHPNILRLYGYFHDATRVYLILEYAPLGTVYRELQKCSKFDEQRTATYITELANALSYCHSKRVIHRDIKPENLLLGSAGELKIADFGWSVHAPSSRRTTLSGTLDYLPPEMIEGRMHDEKVDLWSLGVLCYEFLVGKPPFEANTYQETYKRISRVEFTFPDFVTEGARDLISRLLKHNPSQRPMLREVLEHPWITANSSKPSNSQNKESASKQS
modifications: DABCYL-Plus C2 maleimide on the cysteine introduced by L225C
The molecule B1 displayed a Kd in test [3] of 2000 to 3000 nM. The fold enhancement of binding affinity over unphosphorylated c-Myc 1-331 in test [4] turned out to be 2 fold.
